Experimental data reported in publication PMC7508794, “IRES-targeting small molecule inhibits enterovirus 71 replication via allosteric stabilization of a ternary complex”.

Key:
AUF1-RRM1,2 [1] = biological target: T1, AUF1-RRM1,2 (UniProt Q14103-4 70-239); assay: ITC; DMA-155, RNA:DMA 1:5; ITC: 10 mM K2HPO4, 20 mM KCl, 0.5 mM EDTA, 4 mM BME, pH 6.5, 25 C; lysate pull-down: 5 mM HEPES pH 7.1, 40 mM KCl, 0.1 mM EDTA, 2 mM MgCl2, 2 mM DTT, 0.25 mg/ml heparin, 30 C; conditions: protein: recombinant; tags: N-terminal His6, cleaved with TEV; hairpin with 5-nt bulge and 7-nt apical loop
AUF1-RRM1,2 [2] = biological target: T1, AUF1-RRM1,2; assay: ITC; no small molecule; ITC: 10 mM K2HPO4, 20 mM KCl, 0.5 mM EDTA, 4 mM BME, pH 6.5, 25 C; lysate pull-down: 5 mM HEPES pH 7.1, 40 mM KCl, 0.1 mM EDTA, 2 mM MgCl2, 2 mM DTT, 0.25 mg/ml heparin, 30 C; conditions: protein: recombinant; tags: N-terminal His6, cleaved with TEV; hairpin with 5-nt bulge and 7-nt apical loop
A1-RRM1,2 (UP1) = A1-RRM1,2 (UP1) (UniProt P09651 1-196); assay: as above; conditions: protein: recombinant; tags: C-terminal His6; hairpin with 5-nt bulge and 7-nt apical loop
AUF1-RRM1,2 [3] = biological target: T1, AUF1-RRM1,2; assay: ITC; DMA-001, RNA:DMA 1:5; ITC: 10 mM K2HPO4, 20 mM KCl, 0.5 mM EDTA, 4 mM BME, pH 6.5, 25 C; lysate pull-down: 5 mM HEPES pH 7.1, 40 mM KCl, 0.1 mM EDTA, 2 mM MgCl2, 2 mM DTT, 0.25 mg/ml heparin, 30 C; conditions: protein: recombinant; tags: N-terminal His6, cleaved with TEV; hairpin with 5-nt bulge and 7-nt apical loop
AUF1-RRM1,2 [4] = biological target: T1, AUF1-RRM1,2; assay: ITC; DMA-135, RNA:DMA 1:3.3; ITC: 10 mM K2HPO4, 20 mM KCl, 0.5 mM EDTA, 4 mM BME, pH 6.5, 25 C; lysate pull-down: 5 mM HEPES pH 7.1, 40 mM KCl, 0.1 mM EDTA, 2 mM MgCl2, 2 mM DTT, 0.25 mg/ml heparin, 30 C; conditions: protein: recombinant; tags: N-terminal His6, cleaved with TEV; hairpin with 5-nt bulge and 7-nt apical loop
AUF1-RRM1,2 [5] = biological target: T1, AUF1-RRM1,2; assay: ITC; DMA-135, RNA:DMA 1:5; ITC: 10 mM K2HPO4, 20 mM KCl, 0.5 mM EDTA, 4 mM BME, pH 6.5, 25 C; lysate pull-down: 5 mM HEPES pH 7.1, 40 mM KCl, 0.1 mM EDTA, 2 mM MgCl2, 2 mM DTT, 0.25 mg/ml heparin, 30 C; conditions: protein: recombinant; tags: N-terminal His6, cleaved with TEV; hairpin with 5-nt bulge and 7-nt apical loop
AUF1-RRM1,2 [6] = biological target: T1, AUF1-RRM1,2; assay: ITC; DMA-135, RNA:DMA 1:1.6; ITC: 10 mM K2HPO4, 20 mM KCl, 0.5 mM EDTA, 4 mM BME, pH 6.5, 25 C; lysate pull-down: 5 mM HEPES pH 7.1, 40 mM KCl, 0.1 mM EDTA, 2 mM MgCl2, 2 mM DTT, 0.25 mg/ml heparin, 30 C; conditions: protein: recombinant; tags: N-terminal His6, cleaved with TEV; hairpin with 5-nt bulge and 7-nt apical loop

T1 sequence (Q14103 other isoform, or with tags, fused parts or gaps): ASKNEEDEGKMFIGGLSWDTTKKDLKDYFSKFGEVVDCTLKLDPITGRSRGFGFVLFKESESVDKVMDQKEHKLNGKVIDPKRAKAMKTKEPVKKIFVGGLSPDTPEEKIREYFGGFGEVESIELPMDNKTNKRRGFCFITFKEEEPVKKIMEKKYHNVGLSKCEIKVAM
Chain of A1-RRM1,2 (UP1) (P09651 1-196): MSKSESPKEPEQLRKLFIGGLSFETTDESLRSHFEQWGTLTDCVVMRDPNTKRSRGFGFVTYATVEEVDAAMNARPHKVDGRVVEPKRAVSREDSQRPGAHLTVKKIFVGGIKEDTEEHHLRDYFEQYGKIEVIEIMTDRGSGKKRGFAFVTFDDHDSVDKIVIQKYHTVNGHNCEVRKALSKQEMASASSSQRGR

B1: EV71 SLII (SLII2231) (structured_RNA)
RNA: GGAUCAAUAGCAGGUGUGGCACACCAGUCAUACCUUGAUCC
For B1, the Kd (AUF1-RRM1,2 [1]) was 390 ± 7 nM, the Kd (AUF1-RRM1,2 [2]) was 336 ± 44 nM and the binding result (A1-RRM1,2 (UP1)) was “binds”. For the same binder, the Kd (AUF1-RRM1,2 [3]) was 306 ± 4 nM, the Kd (AUF1-RRM1,2 [4]) was 140 ± 2 nM and the Kd (AUF1-RRM1,2 [5]) was 134 ± 7 nM. The Kd (AUF1-RRM1,2 [6]) was 240 ± 72 nM.
